Data reported in PMC9368491.

Molecular target: β-catenin (endogenous) (UniProt P35222)
Test: anti-Cav-1 IP, β-catenin blot
Settings: reference: WT Cav-1, DMSO; sites Y14

For “Caveolin-1 (Cav-1) (from UniProt Q03135) Y14F Cav-1, DMSO”, the “binding against the reference” value was “weaker”.
